# T1: BcnI wt (UniProt Q8RNV8 1-238)
# T1 sequence: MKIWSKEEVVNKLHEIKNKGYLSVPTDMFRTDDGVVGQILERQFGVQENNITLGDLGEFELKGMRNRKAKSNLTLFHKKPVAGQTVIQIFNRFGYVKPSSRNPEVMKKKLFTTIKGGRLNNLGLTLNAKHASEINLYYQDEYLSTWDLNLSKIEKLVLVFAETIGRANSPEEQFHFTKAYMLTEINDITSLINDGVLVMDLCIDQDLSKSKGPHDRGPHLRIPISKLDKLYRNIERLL
# T2: BcnI H219Q (UniProt Q8RNV8 1-238, H219Q)
# T2 sequence: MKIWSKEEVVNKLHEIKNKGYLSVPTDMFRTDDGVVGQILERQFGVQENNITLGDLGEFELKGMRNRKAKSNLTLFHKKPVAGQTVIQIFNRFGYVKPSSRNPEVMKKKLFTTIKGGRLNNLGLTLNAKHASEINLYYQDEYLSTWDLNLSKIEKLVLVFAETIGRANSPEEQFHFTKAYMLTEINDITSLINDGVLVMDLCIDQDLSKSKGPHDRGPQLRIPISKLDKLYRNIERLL
# T3: BcnI H219N (UniProt Q8RNV8 1-238, H219N)
# T3 sequence: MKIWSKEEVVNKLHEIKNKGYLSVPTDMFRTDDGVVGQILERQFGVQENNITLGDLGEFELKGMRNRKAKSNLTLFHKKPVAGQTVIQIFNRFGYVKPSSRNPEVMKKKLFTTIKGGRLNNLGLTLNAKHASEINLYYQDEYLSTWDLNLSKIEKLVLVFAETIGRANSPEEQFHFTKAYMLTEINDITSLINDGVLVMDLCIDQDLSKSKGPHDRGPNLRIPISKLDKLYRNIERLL
# T4: BcnI H77N+H219N (UniProt Q8RNV8 1-238, H77N;H219N)
# T4 sequence: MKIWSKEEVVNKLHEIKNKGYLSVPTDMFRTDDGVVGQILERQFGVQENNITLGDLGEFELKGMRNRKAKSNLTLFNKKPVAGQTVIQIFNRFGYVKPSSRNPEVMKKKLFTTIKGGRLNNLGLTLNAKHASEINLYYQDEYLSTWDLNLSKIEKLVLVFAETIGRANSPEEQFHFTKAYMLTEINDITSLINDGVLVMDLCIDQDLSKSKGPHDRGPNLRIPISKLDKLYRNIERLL
# T5: BcnI H77N (UniProt Q8RNV8 1-238, H77N)
# T5 sequence: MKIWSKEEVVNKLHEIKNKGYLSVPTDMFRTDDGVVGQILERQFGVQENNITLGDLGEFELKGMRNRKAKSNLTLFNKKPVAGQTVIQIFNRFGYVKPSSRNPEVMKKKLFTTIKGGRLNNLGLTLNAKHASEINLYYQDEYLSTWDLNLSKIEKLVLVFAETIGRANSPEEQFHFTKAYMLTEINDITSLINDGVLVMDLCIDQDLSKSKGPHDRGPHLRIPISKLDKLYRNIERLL
# T6: BcnI H77A+H219N (UniProt Q8RNV8 1-238, H77A;H219N)
# T6 sequence: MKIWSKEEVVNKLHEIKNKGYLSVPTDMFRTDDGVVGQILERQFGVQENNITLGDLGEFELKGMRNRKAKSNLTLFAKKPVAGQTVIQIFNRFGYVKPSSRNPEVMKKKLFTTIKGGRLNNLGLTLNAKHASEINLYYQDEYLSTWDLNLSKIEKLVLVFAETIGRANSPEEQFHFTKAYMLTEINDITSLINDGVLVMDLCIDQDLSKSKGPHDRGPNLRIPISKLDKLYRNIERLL
# T7: BcnI H77A (UniProt Q8RNV8 1-238, H77A)
# T7 sequence: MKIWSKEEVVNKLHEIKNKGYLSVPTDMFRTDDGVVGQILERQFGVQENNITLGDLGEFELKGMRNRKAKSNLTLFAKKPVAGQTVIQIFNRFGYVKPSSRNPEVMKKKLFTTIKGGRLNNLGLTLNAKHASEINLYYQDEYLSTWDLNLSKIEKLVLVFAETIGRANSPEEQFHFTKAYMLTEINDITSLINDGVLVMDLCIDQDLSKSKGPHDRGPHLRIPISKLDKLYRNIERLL
# Legend:
# Assay in all cases: EMSA
# [1] = target: T1, BcnI wt
# [2] = target: T2, BcnI H219Q
# [3] = target: T3, BcnI H219N
# [4] = target: T4, BcnI H77N+H219N
# [5] = target: T5, BcnI H77N
# [6] = target: T6, BcnI H77A+H219N
# [7] = target: T7, BcnI H77A
Binder,Kd [1] [nM],Kd [2] [nM],Kd [3] [nM],Kd [4] [nM],Kd [5] [nM],Kd [6] [nM],Kd [7] [nM]
CG oligoduplex (cognate) (dsDNA) DNA 1: CGCACGACTTCCCGGAAGAGCACGC DNA 2: GTTGCGTGCTCTTCCGGGAAGTCGTGCG,0.5,0.6,0.4,20,0.3,0.5,0.25
TA oligoduplex (miscognate) (dsDNA) DNA 1: CGCACGACTTCCTGGAAGAGCACGC DNA 2: GTTGCGTGCTCTTCCAGGAAGTCGTGCG,,,,,,,25

# From article PMC3089477
